Data on four proteins can be found in paper PMC8938923, “Essential Functional Interplay of the Catalytic Groups in Acid Phosphatase” (ACS Catalysis, 2022).

Substrate in series [1]: O=P(O)(O)O[C@H]1O[C@H](CO)[C@@H](O)[C@H](O)[C@H]1O
The series is described as follows: purified protein, by the assay type. The arrangement: Michaelis-Menten kinetics of substrate hydrolysis, initial rates of free phosphate release, pH 7.0, 37 °C. Here is the method:
8 S1.10 Structure determination and refinement The structure of H18D was determined by molecular replacement with PHASER9 using PDB ID: 1NT4 (H18A) as a search model. Model building was performed with COOT10 and refine-ment was carried out with phenix.refine. 11 The final structures were evaluated using MolPro-bity. 12 The number of Ramachandran outliers was below 0.2%. Figures of the structural models were prepared using PyMol 1.3. 13 S1.11 Phosphatase kinetics The rate constant kcat and the Michaelis constant KM were determined by measuring the initial rate of phosphate hydrolysis catalyzed by wild-type ecAGP (2 nM), H18D or H18D-2 (110 µM), D290A (2 nM - 5 µM, depending on the substrate used) or H18D/D290A (110 µM) in 50 mM HEPES buffer (pH 7.0). Reactions were incubated at 37°C on a Thermomixer comfort (Eppendorf, Hamburg, Germany) with agitation at 650 rpm. The reactions were started by ad-dition of enzyme. Glc1P, Glc6P, and the bis(cyclohexylammonium) salts of [compound left out], 2-nitrophenyl phosphate, 3-nitrophenyl phosphate, [compound left out] phosphate, 4-cyanophenyl S13 phosphate and 3-chlorophenyl phosphate were used as substrates in concentrations ranging from 0.01 mM to 10 mM. Incubation times were adjusted to ensure that the overall substrate hydrolysis was below 10 %. Samples withdrawn were quenched by heating (99°C, 5 min) and the free phosphate concentration was measured in supernatants of centrifuged (16000 × g, 15 min, 4°C) samples. All reactions were performed in triplicate. Kinetic parameters were obtained from non-linear least squares fits (SigmaPlot, Systat, Erkrath, Germany) of initial rates of phosphate release to the Michaelis–Menten equation. V is the initial rate, Vmax is the maximum initial rate, KM is the Michaelis constant and [S] is the initial substrate concentration (equation 1). The kcat was obtained from the relationship, kcat = Vmax/[E], where [E] is the molar concentration of active sites. [E] was obtained from the protein concentration using a molecular mass of the ecAGP subunit of 46674 Da. S10 (Merck Millipore) to a total protein concentration of 13 mg/mL in 10 mM NaAc (pH 4.5). Aliquots of 70 µL were stored at -70°C until use. Purity of the protein preparations was verified by SDS-PAGE. The ecAGP activity was assayed as described below in the section phosphatase kinetics. One unit of ecAGP activity is the amount of enzyme releasing 1 μmol of inorganic phosphate from Glc1P per minute under the conditions applied. S1.5 YidA The YidA from E. coli was used. A N-terminally His-tagged enzyme preparation was applied. […]

Substrate in series [2]: O=P(O)(O)O[C@H]1O[C@H](CO)[C@@H](O)[C@H](O)[C@H]1O
The series is described as follows: phosphomonoester hydrolysis kinetics. In kind it is biochemical, Escherichia coli.

B1: YidA (alternative name: HAD13) (Escherichia coli K-12) (protein)
chain: MAIKLIAIDMDGTLLLPDHTISPAVKNAIAAARARGVNVVLTTGRPYAGVHNYLKELHMEQPGDYCITYNGALVQKAADGSTVAQTALSYDDYRFLEKLSREVGSHFHALDRTTLYTANRDISYYTVHESFVATIPLVFCEAEKMDPNTQFLKVMMIDEPAILDQAIARIPQEVKEKYTVLKSAPYFLEILDKRVNKGTGVKSLADVLGIKPEEIMAIGDQENDIAMIEYAGVGVAMDNAIPSVKEVANFVTKSNLEDGVAFAIEKYVLN
notes: construct only in supplement
As to B1, in series [1], the Michaelis constant (Km) came to 210 ± 30 µM and the kcat worked out at 20 ± 1.3 s⁻¹.

B2: ecAGP (α-D-glucose 1-phosphate phosphatase) (Escherichia coli K-12) (protein)
chain: QTVPEGYQLQQVLMMSRHNLRAPLANNGSVLEQSTPNKWPEWDVPGGQLTTKGGVLEVYMGHYMREWLAEQGMVKSGECPPPYTVYAYANSLQRTVATAQFFITGAFPGCDIPVHHQEKMGTMDPTFNPVITDDSAAFSEQAVAAMEKELSKLQLTDSYQLLEKIVNYKDSPACKEKQQCSLVDGKNTFSAKYQQEPGVSGPLKVGNSLVDAFTLQYYEGFPMDQVAWGEIKSDQQWKVLSKLKNGYQDSLFTSPEVARNVAKPLVSYIDKALVTDRTSAPKITVLVGHDSNIASLLTALDFKPYQLHDQNERTPIGGKIVFQRWHDSKANRDLMKIEYVYQSAEQLRNADALTLQAPAQRVTLELSGCPIDADGFCPMDKFDSVLNEAVK
notes: purified enzyme; homodimer; expression construct and tags only in supplement
As to B2, the Km in series [1] is 90 ± 20 µM. The kcat in series [1] came to 35 ± 1.7 s⁻¹; in series [2] (range printed jointly for wild-type and H18D, individual values in supplement) it was 35 ± 2 s^–1.

B3: ecAGP (α-D-glucose 1-phosphate phosphatase) (Escherichia coli K-12; H40D) (protein)
chain: QTVPEGYQLQQVLMMSRDNLRAPLANNGSVLEQSTPNKWPEWDVPGGQLTTKGGVLEVYMGHYMREWLAEQGMVKSGECPPPYTVYAYANSLQRTVATAQFFITGAFPGCDIPVHHQEKMGTMDPTFNPVITDDSAAFSEQAVAAMEKELSKLQLTDSYQLLEKIVNYKDSPACKEKQQCSLVDGKNTFSAKYQQEPGVSGPLKVGNSLVDAFTLQYYEGFPMDQVAWGEIKSDQQWKVLSKLKNGYQDSLFTSPEVARNVAKPLVSYIDKALVTDRTSAPKITVLVGHDSNIASLLTALDFKPYQLHDQNERTPIGGKIVFQRWHDSKANRDLMKIEYVYQSAEQLRNADALTLQAPAQRVTLELSGCPIDADGFCPMDKFDSVLNEAVK
notes: as for B2
Take B3: the kcat in series [2] (range printed jointly for wild-type and H18D, phospho-enzyme intermediate on Asp18) is 2.0 × 10^–4 s^–1.

B4: ecAGP (α-D-glucose 1-phosphate phosphatase) (Escherichia coli K-12; D312A) (protein)
chain: QTVPEGYQLQQVLMMSRHNLRAPLANNGSVLEQSTPNKWPEWDVPGGQLTTKGGVLEVYMGHYMREWLAEQGMVKSGECPPPYTVYAYANSLQRTVATAQFFITGAFPGCDIPVHHQEKMGTMDPTFNPVITDDSAAFSEQAVAAMEKELSKLQLTDSYQLLEKIVNYKDSPACKEKQQCSLVDGKNTFSAKYQQEPGVSGPLKVGNSLVDAFTLQYYEGFPMDQVAWGEIKSDQQWKVLSKLKNGYQDSLFTSPEVARNVAKPLVSYIDKALVTDRTSAPKITVLVGHASNIASLLTALDFKPYQLHDQNERTPIGGKIVFQRWHDSKANRDLMKIEYVYQSAEQLRNADALTLQAPAQRVTLELSGCPIDADGFCPMDKFDSVLNEAVK
notes: as for B2
Take B4: in series [2] (general acid-base removed), the Km worked out at 1060 ± 120 µM and the kcat came out at 0.014 ± 0.01 s⁻¹.
